This series is described as follows: soluble on expression in E. coli; label from the status in PepcDB or PDB records.
As to “MRELRIESVHTNPYTLTLRMNGVTLNDKDDRQLLGWGNLLVNLEWSSIIDQTWTFEAIRIDKLMIQEERFVSGETRFSRLAAESSGPEAGKEKAEKEESAEMPALRIRDFKLENGILRFADNLKDVTAADDAEPKQVSLALQNIGLSVKDFTLQNDASFPLRLNGQLTKGGKLAFDGTFQLLPSPALEGNAEINELAFKQAAPYLQQFMNVQLENGTLTLNGQMSTNAQQPFAFKGSASINTLNIKEASNDETLLGWDSLQTGQFDLNIASKEIETAPIVVKGLSARVVINQDKTTNFGQLVVDTPADTKGDTNKSEETQPFGITIEGVELSDGDVQFADKSLPLPFSTSIHTLSGEVSTLSSDSSEPARVKFEGEVAEYGLAQVNGTVHAWHPTRQTTINVRFRNLQIPEYSPYTVNFAGRKIADGTMDLDLDYTVNEEKLDGQNNLVLHDLKLGEKMESSDAMDLPLDLAIALLQDSDGVIDLNLPVSGDVGNPQFDFGKVIQQAVGDAIKSVVTAPFSFLANLVGADSEEMGKVEFPEGRTHLLPPQRERIAKLREALNKRPALALELAGPFNQAFDAPALKEDKAMKVLQQRLAEEGSEVEEPSLTSESSQDAMEAIFSSHYPDTELEALKDRFTEKPSEASNEEKFDALAYRNHLAEKVIAAQSITNEELKAIANARAETVRDALVNNSESGISADRVRIREPQEVDSVEGERIAMELAVTTDLEHHHHHH”, the “soluble on expression in E. coli” value is listed as “not soluble”. Turning to “MRETKEWRGTTSTSRVFVQKGYQLSDELALRKVQVLERRYGGMQLAHRAATVIQRAWREYCIMKQWMVIRHKHDTIPDHLDARCGVSNSQRNELSLTSRYATSLSAQLRIDRAARSTTLDRSPPSPAPPVLVNLQNSNMIDSLMSPRLGNRRFGAAASRCAPAAAELTSTEVWLPRPSLVNHNPAHSNSLPRLQLLTAWGFVKNSPDSLASLLFGRRGLSKSMIGEYIGTLHSPYHSLVLKYFTALIDIRGLEVDVALRKAMQFFILPKEAEKIDRIIQAFALHYSKSNPKRTSHYRGGWDTIHLLSFAIIMLNTDLHSPNVKQRMTQADFVKNLRGQDKISGEKNGEDIDRKTLEGIYDRIKKDELKAGDDHVAQVQRVDRAIVGKDKPRLTETPRRLVCYCRLQQVSDPTKRQSSSARERDVFLFNDMIVVAKGVRRGSTSMAGCTYTLKQWTLLLGAHVTEFQRGQYEFGLTITCPNKDKIHFNARNFEDRCHFVADVTESIREATEMEQVRLEMEMEQHTTTTIRPDNQRDSGLPDMDESMKLSNGSNSSAGSSNSSTNGVNNSSFRRLSFNSLDSGVVEEHLDAC”, the “soluble on expression in E. coli” value is given as “not soluble”. In the case of “MRGGVESTSTACATGLHCIGNSFRSIRYGDSRRALAGAVECALNPIALAGFDRMRALARGDQPNISRPFDKKRAGFVMSEGVGLVFMERLEDAQARGAQILAEVVGYGISSDCYHISTPDPSAIGAVLSMNRAIGNAHLEPKDIGYVNAHATSTPNGDSVEAEAVRQVFPEQNIAVSSVKGHIGHLLGAAGSVEAIATIFAMNDDVLPANRNLEETDEGNGLNLLRENQKWSDVSGNKSRISICNSFGFGATNASLILKQF”, the “soluble on expression in E. coli” value is recorded as “not soluble”. For “MRGKAMNIQRFIEKRKARGLSQSELAKGICTQVTVSRFEKNGQVPTLKILIQLCNRLELPLGELFPRVGIKQPEILEKMEEAEFFLITSEHDQLQTILKNIPFDEIKDSQLLLEYYYLQGFVMIFQNASLMDCLFTFEKLLFEEQKYTSDIYRLLAFTGIGMAYAKEGEIEKAEFYFNKVFKEIYLYTIQSMEDTWRVLNVVFHCGVFYAEKGDLETSDALLEYAISICSDNHVTYYLARAAFQLAKNALAEEKPQEQILELLQDARAYAKINKNRILLEAIQTLKETILSKGN” the value was “not soluble”; for “MRGLSLSPVVLPEVRREAGVELRKARLEDVDAIYWLIRYWAEKGLMLVRSHSHLYENIRDFWVLEDEDGQIVGTVALHVLWRDLAEIRGLAVHPTRQGQGLGRWLVLGAEREARDLGLPRVFAWTLQVNFFRALGYRVTSR”, “not soluble”; for “MRGSHHHHHHGSVTTKRYTLPPLPYAYNALEPYISAEIMQLHHQKHHQGYVNGANAALEKLEKFRKGEAQIDIRAVLRDLSFHLNGHILHSIFWPNMAPPGKGGGKPGGKIADLINKFFGSFEKFKEEFSQAAKNVEGVGWAILVYEPLEEQLLILQIEKHNLMHAADAQVLLALDVWEHAYYLQYKNDRGSYVDNWWNVVNWDDVERRLQKALNGQIALKL”, “soluble”. For “MRGSHHHHHHTDPNSPLDEENLTQENQDRGTHVDLGLASANVDFAFSLYKQLVLKAPDKNVIFSPLSISTALAFLSLGAHNTTLTEILKGLKFNLTETSEAEIHQSFQHLLRTLNQSSDELQLSMGNAMFVKEQLSLLDRFTEDAKRLYGSEAFATDFQDSAAAKKLINDYVKNGTRGKITDLIKDLDSQTMMVLVNYIFFKAKWEMPFDPQDTHQSRFYLSKKKWVMVPMMSLHHLTIPYFRDEELSCTVVELKYTGNASALFILPDQDKMEEVEAMLLPETLKRWRDSLEFREIGELYLPKFSISRDYNLNDILLQLGIEEAFTSKADLSGITGARNLAVSQVVHKAVLDVFEEGTEASGTTAVKITLLSALVETRTITRFNRPFLMIIVPTDTQNIFFMSKVTNPKQA” the value was “soluble”; for “MRGSVSQEEVKKWAESLENLINHECGLAAFKAFLKSEYSEENIDFWISCEEYKKIKSPSKLSPKAKKIYNEFISVQATKEVNLDSCTREETSRNMLEPTITCFDEAQKKIFNLMEKDSYRRFLKSRFYLDLTNPSSCGAEKQKGAKSSADCTSLVPQCAHHHHHHP”, “soluble”; for “MRHSLWLLLAAILSLPAQAGTECRDIHDRDLRRMCNALERGDSGDCGDIDSRDMRRYCGALLAPGQRYDCDDIRDGDTRRQCRAIVRGDRKRCDDIDSRDMRRQCRAVVSRAPWQCDGIDDRDMRRICRVILSR”, “soluble”. Regarding “MRIEVTIAKTSPLPAGAIDALAGELSRRISHHFPENLGNVTVRYATANNLSVIGASKEDKERISEILQETWESADDWFINE”, the “soluble on expression in E. coli” value is recorded as “not soluble”. For “MRILSLSFSNLNSLKGEWKIDFSASPFAENGLFAITGPTGAGKTTILDAICLALYHKTPRLGGISTSSNEIMTRGTAECSAEVEFEVKGKAYRAFWSQRRSRGKVDGNLQAATVELAEVDSEKVLATQVKKKDELINTITGLDFSRFTKSMMLSQGQFAAFLNADANDRAGLLEELTGTEIYGQISEKVHEHYTASKQKLAELKAKAEGVELLSEEDKQALIDEQTELQANQKQQQAQL” the value was “not soluble”.

For “MRILVLGVGNILLTDEAIGVRIVEALEQRYILPDYVEILDGGTAGMELLGDMANRDHLIIADAIVSKKNAPGTMMILRDEEVPALFTNKISPHQLGLADVLSALRFTGEFPKKLTLVGVIPESLEPHIGLTPTVEAMIEPALEQVLAALRESGVEAIPRSDS”, the “soluble on expression in E. coli” value was “soluble”. As to “MRILVTNDDGIQSKGIIVLAELLSEEHEVFVVAPDKERSATGHSITIHVPLWMKKVFISERVVAYSTTGTPADCVKLAYNVVMDKRVDLIVSGVNRGPNMGMDILHSGTVSGAMEGAMMNIPSIAISSANYESPDFEGAARFLIDFLKEFDFSLLDPFTMLNINVPAGEIKGWRFTRQSRRRWNDYFEERVSPFGEKYYWMMGEVIEDDDRDDVDYKAVREGYVSITPIHPFLTNEQCLKKLREVYD”, the “soluble on expression in E. coli” value is listed as “soluble”. Under “MRIPRIYHPEPLTSHSHIALCEDAANHIGRVLRMGPGQALQLFDGSNQVFDAEITSASKKSVEVKVLEGQIDDRESPLHIHLGQVMSRGEKMEFTIQKSIELGVSLITPLFSERCGVKLDSERLNKKLQQWQKIAIAACEQCGRNRVPEIRPAMDLEAWCAEQDEGLKLNLHPRASNSINTLPLPVERVRLLIGPEGGLSADEIAMTARYQFTDILLGPRVLRTETTALTAITALQVRFGDLG” stands “soluble”; under “MRIQIGELIRSGVLELGDGYRTKRSELSQFGYAIVRAGDVVEIGVTASDSEFVDQRFDKAIGRKTVRLGDVVITTKGTVGRVAEVSKVPNAGLAVYSPQVCYLRSLQPSILHQRYLKYLLMSPATKYSISTFASSSDMAPYLSLSDFKSMVVDLPSLEDQRAIADVLGALDDKIAENQRVIQLSEQLAMTFYRSTEKSESSLTFADVAGIYGGGTPSTKNPDFWDGEIRWATPTDITALKGPWLCGTARSITEEGLSKSSGSLHPEGSILMTSRATVGHVAFIDAPTTTNQGFINLVPQEAYRYWLYFQLKQRTSEFIAWANGATFLELSRGTFKKLPFQACAETELEKFNSVVAPLMKRVLKAQKENQVLAATRDELLPLLMNGKITVAEAKEAAGDVGVVKQNQQEEGDSSV”, “not soluble”. As to “MRITIAGKIGSGKSTVSSELSRITGYTVYSSGTFFRETARKMNMSIEDFNVYSESHPEADYYTDETQKAFMQANDNIIVEGRLAGWISYLNGINAFRIFLYATYYTRLVRFAGRENIDIDSARDLMEKREKSEKERYRKLYGIDVDDLSIYDIVVNTEFMKPPEIAVYIANRIDEMSRKDIFTPRILR”, the “soluble on expression in E. coli” value was “not soluble”. As for “MRKFIISFCCYVFFIFTLAAQDKAPHYTVIVSLDAFRWDYPAMYDTPNLNQMAREGVKATMLPSYPASTFPNHYTLATGLVPDHNGIINNTFWDVKRRRQYSMGDPATRNNPDYYLGEPIWITAQKQGVKTGNVYWVGSDIAIKGGYPTYYREYAEKPRLTFEQRVDSTIALLEKPEAERPRLVMLYFEEPDGVTHHHGPRSVEAAAIIHRMDSLVGMLRQGIASLPFGKDVNLIVTADHGMTEISDDRVVDMNKYLRPEWCEAVDGRTPTSIFTKPEYRDSVYNALKDVPHIHVWKKEEIPAELNYGSSDRIGDIVVAPELGWQFTDVPRALKGAHGYFPQSPDMQVMFRACGPDFKAGYESKGFVNVDIYPLLAHLLKITPEKTDGQFERIKDILKDVSFLEHHHHHH”, the “soluble on expression in E. coli” value was “not soluble”.

Turning to “MRKICCLLFAVFILCISASCYQRKETRISQPVIMPAIQSPEDIDDYIGEKGYEILESKGKTEEYTLDKKRVYNNWQIWAVQYPEPDHYLGKEISIYSYIIRNHPLDDKSPNKKTYLSVMICENTIIGGYSSPYYEEKDISLVPIGGVYSLEGKNFEEIKNINFDRWRKRFIKKYE”, the “soluble on expression in E. coli” value was “not soluble”. Consider “MRKIVLLSQIVRPALSSARFVHTSTPLSWQKFENERHFEPGEDVMKRVWHGLSYDFRRWKRRFQEARKDAFKRRHPIAHMKHGTLDNEVFPYRAEIVIIGGGLSGSSTAFWLKERFRDEDFKVVVVENNDVFTKSSTMLSTGGITQQFSIPEFVDMSLFTTEFLRHAGEHLRILDSEQPDINFFPTGYLRLAKTDEEVEMMRSAWKVQIERGAKVQLLSKDELTKRYPYMNVDDVLLASLGVENEGTIDTWQLLSAIREKNITLGVQYVKGEVEGFQFERHRASSEVHAFGDDATADENKLRAQRISGVLVRPQMNDASARPIRAHLIVNAAGPWAGQVAKMAGIGKGTGLLAVPVPIQPRKRDVFVIFAPDVPSDLPFIIDPSTGVFCRQTDSGQTFLVGRTPSKEEDAKRDHSNLDVDYDDFYQKIWPVLVDRVPGFQTAKVKSAWSGYQDINTFDDAPVIGEHPLYTNLHMMCGFGERGVMHSMAAARAYAERIFDGAYINVNLRKFDMRRIVKMDPITEPCRL”, for which the “soluble on expression in E. coli” value is reported as “not soluble”. As to “MRKQKNRQRNRGRSQEIALFLDPLATSLKWLQAGRQITTEAFHNPEAGENQYRLISSGFRLSIFGRGAVRQGMNKERFTILLGGDVAVSDRLKRAVVNSRVIAADGGMRHATPLGLTPELWVGDFDSANQELLDAWPDVTRQPYPAAKAVTDGEIAVSEALLRGAHSLLLVGALGGARSDHALQHLLYAVALAERGFEVTLTSGEEEARPLLAGSLAIDLPAGSLFSVAGFTALEGLDIGNVRYPLNDFALAFGSSRTISNVANGGPVHFSLKSGKAIVLARPYDLTGALEHHHHHH”, the “soluble on expression in E. coli” value was “soluble”.

These data come from the DeepSol protein solubility set.
